Assay results published in PMC11624264, “Phosphorylation of P-stalk proteins defines the ribosomal state for interaction with auxiliary protein factors” (EMBO Reports, 2024).
Values joined by “and” are separate entries in the source; they are usually repeats but may differ in a detail not shown here. Identical values can stand only once. Values belong to the molecule of their own block, whether it stands above or below them.

Columns and labels:
[1] = target: P-stalk of 80S ribosomes from the SDPM yeast mutant strain (S to A mutations within all P-stalk proteins at the C-termini) (S. cerevisiae) (UniProt P05317)
[2] = target: native (phosphorylated) yeast pentameric P-stalk complex ΔuL10(199-312)-(P1A–P2B)-(P1B–P2A) (S. cerevisiae) (UniProt P05317)
[3] = target: native (phosphorylated) yeast pentameric P-stalk complex ΔuL10(199-312)-(P1A–P2B)-(P1B–P2A) (S. cerevisiae), P05317; assay: MST; P-stalk complex labelled with RED-tris-NTA on its His tag, 5 nM, titrated with unlabelled eIF5B (dilution series from 1.48 μM); PBS with 0.05% Tween-20 and 1 mg/ml BSA; 25 °C; Monolith NT.115 Pico
[4] = target: P-stalk of 80S ribosomes from the SDPM yeast mutant strain (S to A mutations within all P-stalk proteins at the C-termini) (S. cerevisiae), P05317
eIF5B = target: T1, eIF5B (UniProt P39730 1-1002); assay: MST; P-stalk complex labelled with RED-tris-NTA on its His tag, 5 nM, titrated with unlabelled eIF5B (dilution series from 1.48 μM); PBS with 0.05% Tween-20 and 1 mg/ml BSA; 25 °C; Monolith NT.115 Pico; details: both partners purified
T1 construct: translation initiation factor eIF5B; also called trGTPase eIF5B; source: purified as previously described (Blanchet and Ranjan, 2022)
T1 sequence (looked up): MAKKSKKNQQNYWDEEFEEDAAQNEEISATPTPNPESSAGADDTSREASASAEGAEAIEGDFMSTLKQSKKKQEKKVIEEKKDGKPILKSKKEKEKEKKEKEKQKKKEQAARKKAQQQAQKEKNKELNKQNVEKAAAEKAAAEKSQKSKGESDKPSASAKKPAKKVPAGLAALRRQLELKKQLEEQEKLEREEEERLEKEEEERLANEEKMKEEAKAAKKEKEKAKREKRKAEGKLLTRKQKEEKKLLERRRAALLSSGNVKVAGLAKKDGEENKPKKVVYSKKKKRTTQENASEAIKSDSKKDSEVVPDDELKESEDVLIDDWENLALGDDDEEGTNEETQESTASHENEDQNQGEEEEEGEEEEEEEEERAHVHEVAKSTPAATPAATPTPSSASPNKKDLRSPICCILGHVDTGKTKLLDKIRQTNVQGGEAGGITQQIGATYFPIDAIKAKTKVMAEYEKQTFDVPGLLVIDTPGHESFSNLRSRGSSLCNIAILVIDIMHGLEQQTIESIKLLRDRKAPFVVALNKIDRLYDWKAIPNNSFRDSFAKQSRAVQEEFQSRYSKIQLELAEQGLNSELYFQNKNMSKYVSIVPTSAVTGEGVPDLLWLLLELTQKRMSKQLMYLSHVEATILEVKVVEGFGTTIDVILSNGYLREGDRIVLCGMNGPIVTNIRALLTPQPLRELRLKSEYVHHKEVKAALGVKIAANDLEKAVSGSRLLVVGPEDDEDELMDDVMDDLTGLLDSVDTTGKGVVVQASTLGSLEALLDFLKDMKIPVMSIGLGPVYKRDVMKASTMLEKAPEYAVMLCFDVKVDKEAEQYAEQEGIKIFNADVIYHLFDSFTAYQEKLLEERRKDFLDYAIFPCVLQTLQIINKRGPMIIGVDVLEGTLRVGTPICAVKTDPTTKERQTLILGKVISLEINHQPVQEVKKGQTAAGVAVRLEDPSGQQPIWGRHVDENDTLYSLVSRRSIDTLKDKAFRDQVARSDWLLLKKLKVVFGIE

B1: eIF5B, P39730 1-1002 (enzyme)
chain: T1 sequence (looked up)
modifications: here or on the partner: phosphoserine in the C-terminal domain, mixed phosphorylated and dephosphorylated fractions (position not given) | phosphoserine in the C-terminal domain, mostly phosphorylated (position not given) | phosphoserine in the C-terminal domain, mostly phosphorylated (position not given) | phosphoserine in the C-terminal domain, mostly phosphorylated (position not given) …
Kd [3]: 11.2 µM
GTPase activity of eIF5B (0.05 µM, 10 µM GTP) with 0.2 µM 80S ribosomes from the SDPM strain (S to A, dephospho-mimicking P-stalk on the ribosome): average GTPase rate [4]: 0.02 min⁻¹

B2: AP-treated (dephosphorylated) yeast pentameric P-stalk complex ΔuL10(199-312)-(P1A–P2B)-(P1B–P2A) (complex, S. cerevisiae)
chain 1: SSILDITDEELVSHFVSAVSTIASISLAIGYPTLPSVGHTLINNYKDLLAVAIAASYHYPEIEDLVDRIENPEKYAAAAPAATSAASGDAAPAEEAAAEEEEESDDDMGFGLFD
chain 2: MSTESALSYAALILADSEIEISSEKLLTLTNAANVPVENIWADIFAKALDGQNLKDLLVNFSAGAAAPAGVAGGVAGGEAGEAEAEKEEEEAKEESDDDMGFGLFD
chain 3: MKYLAAYLLLVQGGNAAPSAADIKAVVESVGAEVDEARINELLSSLEGKGSLEEIIAEGQKKFATVPTGGASSAAAGAAGAAAGGDAAEEEKEEEAKEESDDDMGFGLFD
chain 4: MSDSIISFAAFILADAGLEITSDNLLTITKAAGANVDNVWADVYAKALEGKDLKEILSGFHNAGPVAGAGAASGAAAAGGDAAAEEEKEEEAAEESDDDMGFGLFD
chain 5: MKYLAAYLLLNAAGNTPDATKIKAILESVGIEIEDEKVSSVLSALEGKSVDELITEGNEKLAAVPAAGPASAGGAAAASGDAAAEEEKEEEAAEESDDDMGFGLFD
notes: ribosomal P-stalk protein P1A, S. cerevisiae; ribosomal P-stalk protein P2B, S. cerevisiae; ribosomal P-stalk protein P1B, S. cerevisiae; ribosomal P-stalk protein P2A, S. cerevisiae; For MST the complex was labelled with RED-tris-NTA on the His tag; also called dephospho P-stalk; dephospho-P-stalk complex; copies: + + + +
Kd (eIF5B): 4.6 µM and 4.5 µM

More lines, now with the values ahead:

GTPase activity of eEF1A (0.05 µM, 10 µM GTP) with 0.2 µM 80S ribosomes from the SDPM strain (S to A, dephospho-mimicking P-stalk on the ribosome): average GTPase rate [1]: 0.019 min⁻¹
GTPase activity of eEF1A (0.05 µM, 10 µM GTP) with 0.2 µM 80S ribosomes from the WT strain (phosphorylated P-stalk on the ribosome): average GTPase rate [2]: 0.008 min⁻¹
Molecule: eEF1A (from UniProt P02994 1-458) (enzyme)

GTPase activity of eEF2 (0.05 µM, 10 µM GTP) with 0.2 µM 80S ribosomes from the SDPM strain (S to A, dephospho-mimicking P-stalk on the ribosome): average GTPase rate [1]: 0.044 min⁻¹
GTPase activity of eEF2 (0.05 µM, 10 µM GTP) with 0.2 µM 80S ribosomes from the WT strain (phosphorylated P-stalk on the ribosome): average GTPase rate [2]: 0.019 min⁻¹
Molecule: eEF2 (from UniProt P32324 1-842) (enzyme)
